System: p16

CDK2
RB phosphorylation by CDK2-cyclin D2 complexes: No inhibition was observed when CDK2-cyclin D2 complexes were used in a similar assay

— patent US20030100489
